For the test, the target named is hnRNP A1B (heterogenous ribonucleoprotein A1B), mouse (mouse (endogenous in C57BL6/N tissues)). Put plainly: SDS-PAGE immunoblot of tissue lysates (SDS-resistant band); 15 ug of mouse tissue lysate (2 month-old mice, CNS and peripheral tissues) on 12.5% SDS-PAGE, blotted with anti-hnRNP A1B (custom) or anti-hnRNP A1 (4B10). (In general: A western blot detects proteins with antibodies after separation by electrophoresis.)

Regarding “hnRNP A1B (heterogenous ribonucleoprotein A1B), mouse (natural protein)”, the stoichiometry N (usually a count of units in the complex or per binding partner) stood at 2.

(Values after article PMC8498194.)
